Laboratory results as given in patent publication US20020159958A1 (REGENTS OF UNIVERSITY OF CALIFORNIA, published 2002).

Key:
[1] = target: T1, purified streptococcal antigen (SA) I/II (Streptococcus mutans, UniProt P23504 39-1532); assay: ELISA on SA I/II, plant extract
T1 construct: Purified antigen as coated on ELISA plates; also called SA 1/11; purified SA I/II
T1 sequence (looked up): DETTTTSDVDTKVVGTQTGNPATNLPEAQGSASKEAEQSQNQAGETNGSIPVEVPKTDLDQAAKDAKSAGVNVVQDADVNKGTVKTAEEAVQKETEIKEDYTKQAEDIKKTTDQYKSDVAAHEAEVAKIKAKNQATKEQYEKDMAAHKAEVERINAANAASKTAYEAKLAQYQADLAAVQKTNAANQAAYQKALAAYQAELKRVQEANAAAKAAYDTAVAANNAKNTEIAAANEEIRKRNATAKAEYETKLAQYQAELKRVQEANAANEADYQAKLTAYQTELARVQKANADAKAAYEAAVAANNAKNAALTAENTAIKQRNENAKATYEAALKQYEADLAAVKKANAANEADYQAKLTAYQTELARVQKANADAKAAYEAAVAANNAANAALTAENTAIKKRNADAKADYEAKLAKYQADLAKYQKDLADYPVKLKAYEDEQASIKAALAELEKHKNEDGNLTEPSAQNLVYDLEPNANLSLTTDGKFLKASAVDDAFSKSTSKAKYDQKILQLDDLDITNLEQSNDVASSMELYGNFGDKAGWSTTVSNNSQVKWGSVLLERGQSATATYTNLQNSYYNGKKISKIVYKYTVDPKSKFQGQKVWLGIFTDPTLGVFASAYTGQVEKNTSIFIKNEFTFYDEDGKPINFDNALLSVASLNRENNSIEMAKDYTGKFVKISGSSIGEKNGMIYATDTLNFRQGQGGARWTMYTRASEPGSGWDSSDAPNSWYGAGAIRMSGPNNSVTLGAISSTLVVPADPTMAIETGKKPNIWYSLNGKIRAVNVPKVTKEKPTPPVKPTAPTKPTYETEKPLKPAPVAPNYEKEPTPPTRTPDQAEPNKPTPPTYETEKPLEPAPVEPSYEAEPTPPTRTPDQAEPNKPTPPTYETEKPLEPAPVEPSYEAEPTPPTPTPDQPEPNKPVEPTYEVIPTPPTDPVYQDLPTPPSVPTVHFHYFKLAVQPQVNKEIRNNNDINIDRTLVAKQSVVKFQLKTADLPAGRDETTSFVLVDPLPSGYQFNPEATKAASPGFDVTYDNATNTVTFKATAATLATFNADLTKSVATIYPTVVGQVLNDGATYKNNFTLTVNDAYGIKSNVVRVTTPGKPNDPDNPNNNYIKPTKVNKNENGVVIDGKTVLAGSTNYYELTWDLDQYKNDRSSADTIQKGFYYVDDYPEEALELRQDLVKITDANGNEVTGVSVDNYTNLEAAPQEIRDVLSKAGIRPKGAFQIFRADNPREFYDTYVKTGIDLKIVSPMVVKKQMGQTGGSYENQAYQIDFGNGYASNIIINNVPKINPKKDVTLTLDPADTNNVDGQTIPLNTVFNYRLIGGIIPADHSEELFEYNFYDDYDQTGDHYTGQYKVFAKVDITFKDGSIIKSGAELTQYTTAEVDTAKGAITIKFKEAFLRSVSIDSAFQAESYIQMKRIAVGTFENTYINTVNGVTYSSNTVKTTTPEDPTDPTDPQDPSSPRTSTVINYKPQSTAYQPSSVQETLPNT

[2] = target: T1, purified streptococcal antigen (SA) I/II; assay: ELISA on purified SA I/II, plant extract

B1: mouse J chain expressed alone in plants (other, UniProt P01592 22-159, looked up)
chain: GDDEATILADNKCMCTRVTSRIIPSTEDPNEDIVERNIRIVVPLNNRENISDPTSPLRRNFVYHLSDVCKKCDPVEVELEDQVVTATQSNICNEDDGVPETCYMYDRNKCYTTMVPLRYHGETKMVQAALTPDSCYPD
notes: Tested as crude plant extract; also called plants expressing only J chain
B1: no binding [1].

B2: protection protein (amino acids 1-606 of rabbit polyimmunoglobulin receptor) expressed alone in plants (receptor)
chain: QSSLLGPSSIFGPGEVNVLEGDSVSITCYYPTTSVTRHSRKFWCREEESGRCVTLASTGYTSQEYSGRGKLTDFPDKGEFVVTVDQLTQNDSGSYKCGVGVNGRGLDFGVNVLVSQKPEPDDVVYKQYESYTVTITCPFTYATRQLKKSFYKVEDGELVLIIDSSSKEAKDPRYKGRITLQIQSTTAKEFTVTIKHLQLNDAGQYVCQSGSDPTAEEQNVDLRLLTPGLLYGNLGGSVTFECALDSEDANAVASLRQVRGGNVVIDSQGTIDPAFEGRILFTKAENGHFSVVIAGLRKEDTGNYLCGVQSNGQSGDGPTQLRQLFVNEEIDVSRSPPVLKGFPGGSVTIRCPYNPKRSDSHLQLYLWEGSQTRHLLVDSGEGLVQKDYTGRLALFEEPGNGTFSVVLNQLTAEDEGFYWCVSDDDESLTTSVKLQIVDGEPSPTIDKFTAVQGEPVEITCHFPCKYFSSEKYWCKWNDHGCEDLPTKLSSSGDLVKCNNNLVLTLTLDSVSEDDEGWYWCGAKDGHEFEEVAAVRVELTEPAKVAVEPAKVPVDPAKAAPAPAEEKAKARCPVPRRRQWYPLSRKLRTSCPEPRLLAEEVAVQSAE
notes: also called plants expressing only protection protein; free protection protein
B2: no binding [2].
